Reference: patent US20230340111A1 (published 2023)
Where two headings read alike, the source gives them in different places.

How the values were obtained:
[1] = target: T1, human FOLR1 expressed on SKOV-3 ovarian carcinoma cells (human, UniProt P15328 25-234); test: saturation binding of 131I-labelled untagged VHH on SKOV-3 cells
T1 construct: Naturally expressed receptor on SKOV-3 cells; also called human FOLR1pos SKOV-3 cancer cells; human FOLR1-expressing cell line SKOV-3
Description: In a first part, their in vitro behaviour was assessed by means of investigating their cellular binding and retention over time. The binding potential of the resulting radioconjugates was assessed to confirm that this was not affected by the introduction of ¹³¹I-SGMIB into the amino acid sequence of the different VHHs. To this, human FOLR1^pos SKOV-3 cancer cells were incubated with serial dilutions with concentrations ranging from 0 to 300 nM of the different ¹³¹I-labelled, His₆ tagged VHHs. A 100-fold excess of the corresponding unlabeled VHH was added in parallel to saturate the human FOLR1 receptors expressed on cancer cells, to assess non-specific binding.
A1 and A2 parental untagged VHH’s and derivatives were radiolabeled with theranostic isotope ¹³¹I, as described in example 3, and subjected to saturation binding studies as described in example 6.

[2] = target: T1, human FOLR1 expressed on SKOV-3 ovarian …; test: as above; remark: listed apart in the source
[3] = target: T1, human FOLR1 expressed on SKOV-3 ovarian …; test: cellular retention on SKOV-3 cells: 10 nM 131I-VHH 1 h at 4 C, then up to 24 h at 37 C; membrane-bound plus internalized fraction
In short: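 His₆-tagged and untagged ¹³¹I-VHHs were tested, with a 100-fold excess of unlabeled VHH for non-specific binding. Unbound and dissociated fractions were collected. Membrane-bound label was stripped with 0.05 M glycine pH 2.8, and internalized label was recovered by 1 M NaOH solubilization.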

T1 sequence (P15328 25-234 limits assumed): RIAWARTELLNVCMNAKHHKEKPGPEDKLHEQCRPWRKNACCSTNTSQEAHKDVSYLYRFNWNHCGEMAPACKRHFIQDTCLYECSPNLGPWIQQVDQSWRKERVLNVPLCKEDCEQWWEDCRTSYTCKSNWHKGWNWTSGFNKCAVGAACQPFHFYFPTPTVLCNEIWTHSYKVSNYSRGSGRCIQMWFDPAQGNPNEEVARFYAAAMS

B1: 131I-labeled untagged VHH A1 (VHH)
VHH: DVQLVESGGGLVQPGGSLRLSCAASESIFSRNHMSWYRQAPGKQRELAAIITSDGNTNYPDSVKGRFTISRDNAKNTVYLQMNSLKPEDTAVYYCNTFGRSVAGFYDYWGQGTQVTVSS
modifications: [131I]SGMIB conjugated to lysine side-chain amine groups
**Q.** Which EC50 [1] does the source give for B1 here?
**A.** Its EC50 is 1.1 nM.

**Q.** And the EC50 [2]?
**A.** The EC50 was 1.2 nM.

**Q.** And the “cell-associated fraction of initial bound activity after 24 h” value [3]?
**A.** The value was about 40%.
